Molecular target: RANKL ectodomain (eRANKL, residues 157-316) of rat (rat) (UniProt Q9ESE2)
Assay: crystal structure of the complex

UniProt Q9ESE2, sequence (Q9ESE2 157-316 limits assumed): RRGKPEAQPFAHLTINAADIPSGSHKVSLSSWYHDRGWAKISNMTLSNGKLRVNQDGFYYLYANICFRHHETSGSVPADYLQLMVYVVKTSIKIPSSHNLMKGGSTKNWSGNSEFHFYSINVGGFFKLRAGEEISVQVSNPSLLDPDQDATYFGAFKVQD

reduction of solvent accessible surface area on binding: 7680 Å^2 | reduction of solvent accessible surface area on binding, share of the total accessible surface area of unbound receptors and ligands: 15.4%
Substance: RANK ectodomain (eRANK, residue 32-201) of rat (receptor)
